Residue numbers refer to the chain shown, from its start.
T1: CD22 (UniProtKB-P20273) on CD22(+) cells (human, UniProt P20273 20-847)
T1 construct: Endogenous CD22 on the NALM6 and Raji cell lines; also called SIGLEC-2; BL-CAM
T1 sequence: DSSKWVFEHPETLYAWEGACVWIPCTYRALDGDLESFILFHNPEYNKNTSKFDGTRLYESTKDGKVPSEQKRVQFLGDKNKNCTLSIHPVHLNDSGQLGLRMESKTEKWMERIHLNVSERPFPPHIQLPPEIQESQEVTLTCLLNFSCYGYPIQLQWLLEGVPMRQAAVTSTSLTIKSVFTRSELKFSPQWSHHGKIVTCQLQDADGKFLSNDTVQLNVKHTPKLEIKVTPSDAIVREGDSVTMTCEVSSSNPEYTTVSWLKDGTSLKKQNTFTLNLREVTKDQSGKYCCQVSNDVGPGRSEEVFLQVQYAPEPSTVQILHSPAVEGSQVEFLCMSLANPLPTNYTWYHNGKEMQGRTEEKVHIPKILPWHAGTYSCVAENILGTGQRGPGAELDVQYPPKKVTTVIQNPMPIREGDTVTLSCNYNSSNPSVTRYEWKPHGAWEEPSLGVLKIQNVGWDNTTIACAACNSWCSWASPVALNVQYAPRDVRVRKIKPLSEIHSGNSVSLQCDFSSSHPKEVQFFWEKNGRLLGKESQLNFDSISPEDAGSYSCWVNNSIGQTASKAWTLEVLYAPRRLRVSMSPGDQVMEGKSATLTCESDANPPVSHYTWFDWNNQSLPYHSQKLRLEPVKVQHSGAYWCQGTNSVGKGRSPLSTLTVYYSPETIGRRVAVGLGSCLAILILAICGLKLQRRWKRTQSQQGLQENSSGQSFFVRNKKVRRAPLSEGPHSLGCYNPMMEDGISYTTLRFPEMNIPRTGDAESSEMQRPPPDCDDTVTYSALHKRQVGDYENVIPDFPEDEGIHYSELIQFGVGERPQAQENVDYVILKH

B1: humanized LL2 L1 + H1 (antibody, V domains shown)
VH: QVQLVESGAEVKKPGASVKMSCKASGYTFTSYWLHWIRQAPGQRLEWIGYINPRNDYTKYSQKFQGRATITADKSASTAYMELSSLRSEDTAVYYCARRDITTFYWGQGTTLTVSS
VL: DIVLTQSPDSLAVSAGERVTMNCKSSQSVLYSANHKNYLAWYQQKPGQPPKLLIYWASTRESGVPDRFSGSGSGTDFTLTISSVQAEDVAIYYCHQYLSSWTFGGGTKLEIK
notes: Human IgG1 frameworks
B2: humanized LL2 L2 + H2 (antibody, V domains shown)
VH: B1 VH with V5Q, A68V, I70L, A72R
VL: B1 VL with A15L, P49S
notes: Human IgG1 frameworks
B3: humanized LL2 L2 + H10 (antibody, V domains shown)
VH: QVQLVQSGAEVKKPGASVKVSCKASGYTFTSYWLHWVRQAPGQRLEWMGYINPRNDYTEYNQNFKDRVTLTADKSASTAYMELSSLRSEDTAVYYCARRDITTFYWGQGTTLTVSS
VL: B1 VL with A15L, P49S
notes: Human IgG1 frameworks
B4: humanized LL2 L2 + H6 (antibody, V domains shown)
VH: B3 VH with V5Q, V37I, L70I, A72R, K74T
VL: B1 VL with A15L, P49S
notes: Human IgG1 frameworks
B5: humanized LL2 L1 + H8 (antibody, V domains shown)
VH: B3 VH with Q6E, V37I, L70I, A72R, K74T
VL: B1 VL
notes: Human IgG1 frameworks
B6: humanized LL2 L2 + H9 (antibody, V domains shown)
VH: B3 VH with M48I, L70I, K74T
VL: B1 VL with A15L, P49S
notes: Human IgG1 frameworks
B7: humanized LL2 L2 + H7 (antibody, V domains shown)
VH: B3 VH with Q6E, V68A, L70I, A72R, K74T
VL: B1 VL with A15L, P49S
notes: Human IgG1 frameworks
B8: humanized LL2 L2 + H8 (antibody, V domains shown)
VH: B3 VH with Q6E, V37I, L70I, A72R, K74T
VL: B1 VL with A15L, P49S
notes: Human IgG1 frameworks
B9: humanized LL2 L2 + H11 (antibody, V domains shown)
VH: B3 VH with V20M, V68A, L70I, K74T
VL: B1 VL with A15L, P49S
notes: Human IgG1 frameworks
B10: humanized LL2 L2 + H5 (antibody, V domains shown)
VH: B1 VH with V5Q, M20V, I37V, K59E, I70L, K74T
VL: B1 VL with A15L, P49S
notes: Human IgG1 frameworks
B11: humanized LL2 L2 + H4 (antibody, V domains shown)
VH: B1 VH with V5Q, E6Q, I48M, K59E, S61N
VL: B1 VL with A15L, P49S
notes: Human IgG1 frameworks
B12: humanized LL2 L1 + H7 (antibody, V domains shown)
VH: B3 VH with Q6E, V68A, L70I, A72R, K74T
VL: B1 VL
notes: Human IgG1 frameworks
B13: humanized LL2 L2 + H12 (antibody, V domains shown)
VH: B3 VH with V5Q, V20M, L70I, K74T
VL: B1 VL with A15L, P49S
notes: Human IgG1 frameworks
B14: humanized LL2 L2 + H3 (antibody, V domains shown)
VH: B1 VH with V5Q, E6Q, M20V, K59E, I70L, K74T
VL: B1 VL with A15L, P49S
notes: Human IgG1 frameworks

These binders were tested against T1, CD22 (UniProtKB-P20273) on CD22(+) cells (assay: flow cytometry on CD22(+) NALM6 cells).

Row | Binder | MFI (FACS NALM6)
1 | B1 | 26.4
2 | B2 | 28.1
3 | B3 | 37
4 | B4 | 36.1
5 | B5 | 23.3
6 | B6 | 34.3
7 | B7 | 27.3
8 | B8 | 26.7
9 | B9 | 36.3
10 | B10 | 40.4
11 | B11 | 35.9
12 | B12 | 21.8
13 | B13 | 31.7
14 | B14 | 36.8

Reference: patent US20220177581A1 (Memorial Sloan Kettering, published 2022)
